Reference: patent publication US6018029

Molecular target: IL-1 receptor on the THP-1 human monocyte cell line (human) (UniProt P14778)

IL-6 message level (IL-6 mRNA, Northern blot, arbitrary units) (arbitrary units): 12
Substance: IL-1B (ligand)
